# Source: the RNAGym collection of RNA variant scans (doi:10.1073/pnas.2313332121)
# B1: TPR t1 (parent)
# chain: GACCAAUCUGCCCUCAGAGCUCGAGAACAUCUUCGGAUGCAGAGGAGGCAGGCUUCGGUGGCGCGAUAGCGCCAACGUCCUCAACCUCCAAUGCAUCCCACCACAUGAUGAUGCCUGAAGAGCCUUGGUUUUUUG
# Variants of: B1
# Experiment: polymerase ribozyme fitness, log enrichment relative to wild type (log ratio); higher = more active; in vitro selection for triplet polymerase activity
# Outline: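 Mutant libraries were PCR-built and transcribed for each subunit of a heterodimeric triplet polymerase ribozyme and selected for one round in triplicate at −7 °C, frozen, before gel excision of extended constructs and streptavidin-bead capture. Input and output libraries were Illumina-sequenced, keeping genotypes with ≥10 input reads and ≥1 read per output. Fitness is a logarithmic ratio of genotype to wild-type enrichment, in base 2, using inverse-variance-weighted replicate averages.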
row,Variant,polymerase ribozyme fitness (log ratio)
1,GACCAAUCUGCCCUCAGAGCUCGAGAACAUCUUCGGUUGCAGAGGAGGCAGGCUUCGGUGGCGCGAUAGCGCCAACGUCCUCAACCUCCAAUGCAUCCCACCACAUGAUGAUGCCUGAAGAGUCUAGGUUUUUUG [A37U C123U U126A],0.344
2,GACCAAUCUGCCCUCAGAGCUCGAGAACAUCUUCGGUUGCAGAGGAGGCAGGCUUCGGUGGCGCGAUAGCGCCAACGUCCUUAACCUCCAAUGCAUCCCACCACAUGAUGAUGCCUGAAGAGCCUUGCUCUUUUG [A37U C82U G128C U130C],-2.33
3,GACCAAUCUGCCCUCAGAGCUCGAGAACAUCUUCGGUUGCAGAGGAGGCAGGCUUCGGUGGCGCGAUAGCGCUAACGUCCUCAACCUCCAAUGCAUCCCACCACAUGAUGAUGCCUGAACAGCCUUGGUUUUUUG [A37U C73U G120C],1.31
4,GACCAAUCUGCCCUCAGAGCUCGAGAACAUCUUCGGUUGCAGAGGAGGCAGGCUUCGGUGGCGCGAUAGCGCCAACGUCCUCAACCUCCAAUGCAUCCCAGCACAUGAUGAUGCCUGAAGAGCCUUGCUUUUUUG [A37U C101G G128C],-3.4
5,GACCAAUCUGCCCUCAGAGCUCGAGAACAUCUUCGGUUGCAGAGGAGGCAGGCUUCGGUGGCGCGAUAGCGCCAACGUCCUCAACUUCCAAUGCAUCCCACCACAUGAUGAUGCCUGAAGAGCCUUGGUUUUUUG [A37U C86U],-0.912
6,GACCAAUCUGCCCUCAGAGCUCGAGAACAUCUUCGGUUGCAGAGGAGGCAGGCUUCGGUGGCGCGAUAGCGCCAACGUCCUCAACCUCCAAUGCAUCCCACCACAUGAUGAUGACUGAAGCGCCCUGGUUUUUUG [A37U C114A A121C U125C],-0.52
7,GACCAAUCUGCCCUCAGAGCUCGAGAACAUCUUCGGUUGCAGAGGAGGCAGGCUUCGGUGGCGCGAUAGCGCCAACGUCUUCAACCUCCAAUGCAUCCCAACACAUGAUGAUGCCUGAAGAGCCUUGGUUUUUUG [A37U C80U C101A],-2.69
8,GACCAAUCUGCCCUCAGAGCUCGAGAACAUCUUCGGUUGCAGAGGAGGCAGGCUUCGGUGGCGCGAUAGCGAUAACGUCCUCAACCUCCAAUGCAUCCCACCACAUGAUGAUGCCUUAAGAGCAUUGGUUUUUUG [A37U C72A C73U G117U C124A],-1.66
9,GACCAAUCUGCCCUCAGAGCUCGAGAACAUCUUCGGUUGCAGAGGAGGCAGGCUUCGGUGGCGCGAUAGCGACAACGUCCUCAACCUCCAAUGCAUCCCACCACAAGAUGAUGCCUGAAGAGCCUUGGUUUUUUU [A37U C72A U106A G135U],-0.59
10,GACCAAUCUGCCCUCAGAGCUCGAGAACAUCUUCGGUUGCAGAGGAGGCAGGCUUCGGUGGCGCGAUAGCGUCAACGUCCUCAACCUCCAAUGCAUCACACCACAUGAUGAUGCCUGAAGAGGCUUGGUUUUUUG [A37U C72U C98A C123G],-5.11
11,GACCAAUCUGCCCUCAGAGCUCGAGAACAUCUUCGGUUGCAGAGGAGGCAGGCUUCGGUGGCGCGAUAGCGCCAACGUCCUCAACAUCCAAUGCAUCCCACCACAUGAUGAGGCCUGAAGAGCCUUGAUUUUUUG [A37U C86A U112G G128A],-3.56
12,GACCAAUCUGCCCUCAGAGCUCGAGAACAUCUUCGGUUGCAGAGGAGGCAGGCUUCGGUGGCGCGAUAGCGCCAACGUCCUGAACCUCCAAUGCAUCCCACCACAUGAUCAUGCCUGAAGAGCCUUGGUUUUUUG [A37U C82G G110C],-6.53
13,GACCAAUCUGCCCUCAGAGCUCGAGAACAUCUUCGGUUGCAGAGGAGGCAGGCUUCGGUGGCGCGAUAGCGCCAACGUCCUAAACCUCCAAUUCAUCCCACCACAUGAUGAUGCCUGAAGAGCCUUGGUUUUUUG [A37U C82A G93U],-1.72
14,GACCAAUCUGCCCUCAGAGCUCGAGAACAUCUUCGGUUGCAGAGGAGGCAGGCUUCGGUGGCGCGAUAGCGCCAACGUCCUCAACCUCCAAUGCAUCCCAACACAUGAUGAUGCUUGAAGAGCCUUCGUUUUUUG [A37U C101A C115U G127C],-4.26
15,GACCAAUCUGCCCUCAGAGCUCGAGAACAUCUUCGGUUGCAGAGGAGGCAGGCUUCGGUGGCGCGAUAGCGCCAACGUCCUCAACCUCCAAUGUAUCCCACCACAUGAUGAUGCCUAAAGAGCCUUGGUUUUUUG [A37U C94U G117A],-2.17
16,GACCAAUCUGCCCUCAGAGCUCGAGAACAUCUUCGGUUGCAGAGGAGGCAGGCUUCGGUGGCGCGAUAGCGCCAACGUCCUCAACCUCUAAUGCAUCCCACCACAUGGUGAUGCCUGAAGAGCCUUGGUUUUUUG [A37U C89U A108G],-3.18
17,GACCAAUCUGCCCUCAGAGCUCGAGAACAUCUUCGGUUGCAGAGGAGGCAGGCUUCGGUGGCGCGAUAGCGCCAACGUACUCAACCGCCAAUGCAACCCACCACAUGAUGAUGCCUGUAGAGCCUUGGUUUUUUG [A37U C79A U87G U96A A118U],-0.000648
18,GACCAAUCUGCCCUCAGAGCUCGAGAACAUCUUCGGUUGCAGAGGAGGCAGGCUUCGGUGGCGCGAUAGCGCCAACGUCCUCAAUCUCCAAUGCAUCCCACCACAUGAUGAUGCCUGAAGAGCCUUGGUUUUUUG [A37U C85U],-1.29
19,GACCAAUCUGCCCUCAGAGCUCGAGAACAUCUUCGGUUCCAGAGGAGGCAGGCUUCCGUGACGCGAUAGCGCCAACGUCCUCAACCUCCAAUGCAUCCCACCACACGAUGAUCCCUGAAGAGCCUUGGUUUUUUG [A37U G39C G57C G61A U106C G113C],-4.04
20,GACCAAUCUGCCCUCAGAGCUCGAGAACAUCUUCGGUUGCAGAGGAGGCAGGCUUCGGUGGCGCGAUAGCGCAAACGUCCUCAACCCCCAAUGCAUCCCACCACAUGAUGAUGCCUGAAGAGCCUUGGUUUUUUG [A37U C73A U87C],0.034
21,GACCAAUCUGCCCUCAGAGCUCGAGAACAUCUUCGGUUGCAGAGGAGGCAGGCUUCGGUGGCGCGAUAGCGCCAACGUCCUAAACCUCCAAUGCAUCCCACCACAUGAUGAUGCCUGAACAGCCUUGGUUUUUUG [A37U C82A G120C],0.889
